In patent US20200079844A1:
Read-outs that look alike come from different tables or passages of the source.

Experiments:
human TNFα (human) [1] = molecular target: human TNFα (human) (UniProt P01375); test: cell-based or functional assay
rhesus TNFα (rhesus) [2] = molecular target: rhesus TNFα (rhesus) (UniProt P48094)
rhesus TNFα (rhesus) [3] = molecular target: rhesus TNFα (rhesus) (UniProt P48094); test: cell-based or functional assay
rhesus TNFα (rhesus) [4] = molecular target: rhesus TNFα (rhesus) (UniProt P48094); remark: listed apart in the source
human TNFα (human) [5] = molecular target: human TNFα (human) (UniProt P01375); test: cell-based or functional assay; remark: listed apart in the source

Chain of human TNFα (human) (P01375 77-233 limits assumed): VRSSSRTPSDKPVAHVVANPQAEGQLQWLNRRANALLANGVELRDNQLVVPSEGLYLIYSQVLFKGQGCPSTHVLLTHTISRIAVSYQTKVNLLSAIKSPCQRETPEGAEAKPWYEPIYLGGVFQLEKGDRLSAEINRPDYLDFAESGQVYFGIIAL
Chain of rhesus TNFα (rhesus) (P48094 77-233 limits assumed): as the sequence (P01375 77-233 limits assumed) above, with R44T, T72N, R138L counted along it

IC50 in pM; TNFα-induced IL-6 production by RA synovial fibroblasts, donor DS534 P4 (human TNFα (human) [1])	IC50 in pM; TNFα-induced IL-6 production by RA synovial fibroblasts, donor DS592 P4 (human TNFα (human) [1])	IC50 in pM; TNFα-induced IL-6 production by RA synovial fibroblasts, donor DS605 P3 (human TNFα (human) [1])	IC50 in pM; TNFα-induced IL-6 production by RA synovial fibroblasts, donor KM05-179 P4 (human TNFα (human) [1])	p[IC]50; TNFα-induced IL-6 production by RA synovial fibroblasts, donor DS534 P4 (human TNFα (human) [1])	p[IC]50; TNFα-induced IL-6 production by RA synovial fibroblasts, donor DS592 P4 (human TNFα (human) [1])	p[IC]50; TNFα-induced IL-6 production by RA synovial fibroblasts, donor DS605 P3 (human TNFα (human) [1])	p[IC]50; TNFα-induced IL-6 production by RA synovial fibroblasts, donor KM05-179 P4 (human TNFα (human) [1])	EC50 (read off the curve) (rhesus TNFα (rhesus) [2])	EC50 in nM; alphaKYM cell assay (10000 c/w), human TNFa @ 1 ng/ml (human TNFα (human) [1])	EC50 (read off the curve) (rhesus TNFα (rhesus) [4])	Substance	EC50 in nM (mean); L929s + Act D cytotoxicity assay, human TNFa @ 0.5 ng/ml (human TNFα (human) [1])	EC50 in nM (mean); L929s + Act D cytotoxicity assay, human TNFα @ 0.5 ng/ml (human TNFα (human) [1])	EC50 in nM (mean); L929s + Act D cytotoxicity assay, rhesus TNFa @ 0.5 ng/ml (rhesus TNFα (rhesus) [3])	EC50 in nM (mean); L929s + Act D cytotoxicity assay, rhesus TNFα @ 0.5 ng/ml (rhesus TNFα (rhesus) [3])	EC50 in nM (mean); cytotoxicity assay, human TNFα (human TNFα (human) [1])	EC50 in nM (mean); cytotoxicity assay, human TNFα (human TNFα (human) [5])
132 pM	363 pM	427 pM	537 pM	9.88	9.44	9.37	9.27				ALX0071						
282 pM	324 pM	309 pM	309 pM	9.55	9.49	9.51	9.51	0.01 nM	0.04 nM		Enbrel (Etanercept) (Fc fusion)	0.009 nM	0.009 nM	0.009 nM	0.009 nM		
								0.09 nM	0.103 nM	0.1 nM	Humira (Adalimumab) (antibody)			0.071 nM	0.071 nM	0.141 nM	0.127 nM
											Remicade (Infliximab) (antibody)			> 6.7 nM	> 6.7 nM		
